Experimental data from patent publication US20220288229A1 (priority 2012, published 2022).

Assay: Tolerability observations after IV dosing in the rat PK study
Format: in vivo
Conditions: rats, 1 mg/kg dose, three rats
Protocol: For PK studies, a 0.1 mg/mL solution was dosed at 10 mL/kg such that a 1 mg/kg IV bolus dose was introduced by tail vein injection into rats Following compound administration, blood was collected at 0.083 h, 0.25 h, 0.5 h, 1 h, 2 h, 4 h, 8 h, and 24 h post dose into lithium heparin coated vacuum tubes. Tubes were inverted for 5 minutes and then placed on wet ice until centrifuged for 5 minutes at 4° C. at 6000 rpm. Plasma was harvested, frozen at −80° C. and shipped to for bioanalysis on dry ice.

CCCCN(CCSSC[C@@H]1NC(=O)[C@@H](Cc2ccccc2)NC(=O)[C@H](CC(=O)O)NC(=O)CNC(=O)[C@H](CCCNC(=N)N)NC1=O)C(=O)O[C@@H](C(=O)OC1C[C@@]2(O)[C@@H](OC(=O)c3ccccc3)[C@@H]3[C@]4(OC(C)=O)CO[C@@H]4C[C@H](OC)[C@@]3(C)C(=O)[C@H](OC)C(=C1C)C2(C)C)[C@@H](NC(=O)OC(C)(C)C)c1ccccc1 (some centres unmarked) [BT-568]
Clinical signs of toxicity post dose: lethargy and labored breathing were observed immediately post dose in all three rats
Mortality: one of the three animals died
